The target of assay [1] is α-MSH receptor of wild type Xenopus laevis melanophores (Xenopus laevis). The assay can be described thus: cell-based or functional assay.
In assay [2] the target is bombesin receptor expressed in transfected Xenopus laevis melanophores (plasmid pJG3.6BR). The assay is described as follows: cell-based or functional assay.

Non-standard residues stand in square brackets, D forms with d. No end group written: not given here. Ahx = NCCCCCC(=O)O; βAla = NCCC(=O)O

In assay [1], SYSMEHFRWGKPVGGG[Ahx]KKKKKKKKKKKKKKKKKKKKC[βAla] (ends and bridges not checked; also: disulfide-linked homodimer via Cys) [α-MSH dimer (disulfide-linked homodimer of …-GGG-εAhx-K(20)-C-βAla)] registered an EC50 (at t=30 min.) of pigment dispersion in wild type melanophores of 72.5 nM and an EC50 of pigment dispersion, fold lower than α-MSH monomer of 5 fold.

B1: Bombesin dimer (disulfide-linked homodimer of C-K(20)-εAhx-GGG-…) (peptide)
peptide: CKKKKKKKKKKKKKKKKKKKK[Ahx]GGGQQRLGNQWAVGHLM-NH2
modifications: ends and bridges not checked; also: disulfide-linked homodimer via N-terminal Cys
In assay [2], B1 had an EC50 (t=30 min) of pigment dispersion in melanophores transfected with the bombesin receptor of 23.4 nM and an EC50 of pigment dispersion, fold lower than bombesin monomer of 5 fold.
MP[dF]R[dW]FKPVGGG[Ahx]KKKKKKKKKKKKKKKKKKKK[βAla] [α-MSH-ANT monomer (MPdFRdWFKPV-GGGεAhx-K(20)-βAla)] had an IC50 of inhibition of α-MSH (5 nM) mediated pigment dispersion in wild type melanophores in assay [1] of 120 nM.

For the origin of these results see patent publication US6500934.
